For data set [1], the target named is T1, human ORC1-5 (HsORC1-5, with ORC1ΔN) (Homo sapiens, UniProt O43929+Q13415, O43929:N78S/Q13415:R720Q).
T1 construct: ORC1 N-terminally truncated (ORC1ΔN399, probably starts at residue 400), ORC4 with natural variant N78S; 6xHis-TEV (ORC1) and MBP-TEV (ORC4) tags cleaved; baculovirus/High Five cells; ORC6 not included; with Origin recognition complex subunit 2; Origin recognition complex subunit 3; Origin recognition complex subunit 5
Nature of the data set: NADH-coupled steady-state ATPase assay. In kind it is biochemical. The following applies: ATP 0.13 uM to 0.5 mM, 1 uM ORC, 10 mM Mg acetate, 300 mM K glutamate, pH 7.6, 37 C; ORC1-ORC4 ATPase site.

A further data set addresses ORC1-5 ORC1 R720Q (human, UniProt Q13415;Q13416;Q9UBD5;O43929;O43913 400-861;1-577;1-711;1-436;1-435, R720Q;N78S). Nature of the data set: fluorescence anisotropy; 1 mM ATP, 10 mM Mg acetate; 25 mM HEPES-KOH pH 7.6, 300 mM K glutamate, 10% glycerol, 1 mM DTT, 10 mM Mg acetate, 0.01% NP-40, 0 or 1 mM ATP, 1 nM DNA, 30 min at 22 °C; Hill fit (Kd,app). To be noted: protein: recombinant; tags: 6xHis-TEV (ORC1) and MBP-TEV (ORC4), cleaved by TEV; copies: 1;1;1;1;1; label: 5' fluorescein-T on strand 1; blunt (40 bp; possible 1 nt 5' FluorT overhang).

The next data set concerns the target ORC1-5 ORC1 R666W (human, UniProt Q13415;Q13416;Q9UBD5;O43929;O43913 400-861;1-577;1-711;1-436;1-435, R666W;N78S). Described as above. To be noted: protein: recombinant; tags: 6xHis-TEV (ORC1) and MBP-TEV (ORC4), cleaved by TEV; copies: 1;1;1;1;1; label: 5' fluorescein-T on strand 1; blunt (40 bp; possible 1 nt 5' FluorT overhang).
The next data set concerns the target ORC1-5 (WT, ORC1ΔN) (human, UniProt Q13415;Q13416;Q9UBD5;O43929;O43913 400-861;1-577;1-711;1-436;1-435, N78S). Described as above. The following applies: protein: recombinant; tags: 6xHis-TEV (ORC1) and MBP-TEV (ORC4), cleaved by TEV; copies: 1;1;1;1;1; label: 5' fluorescein-T on strand 1; blunt (40 bp; possible 1 nt 5' FluorT overhang).
In the next data set the target is ORC1-5 ORC4 Y174C (human, UniProt Q13415;Q13416;Q9UBD5;O43929;O43913 400-861;1-577;1-711;1-436;1-435, Y174C;ORC4:N78S). The description is as above. To be noted: protein: recombinant; tags: 6xHis-TEV (ORC1) and MBP-TEV (ORC4), cleaved by TEV; copies: 1;1;1;1;1; label: 5' fluorescein-T on strand 1; blunt (40 bp; possible 1 nt 5' FluorT overhang).

T1 sequence (Q13415 400-861 R720Q): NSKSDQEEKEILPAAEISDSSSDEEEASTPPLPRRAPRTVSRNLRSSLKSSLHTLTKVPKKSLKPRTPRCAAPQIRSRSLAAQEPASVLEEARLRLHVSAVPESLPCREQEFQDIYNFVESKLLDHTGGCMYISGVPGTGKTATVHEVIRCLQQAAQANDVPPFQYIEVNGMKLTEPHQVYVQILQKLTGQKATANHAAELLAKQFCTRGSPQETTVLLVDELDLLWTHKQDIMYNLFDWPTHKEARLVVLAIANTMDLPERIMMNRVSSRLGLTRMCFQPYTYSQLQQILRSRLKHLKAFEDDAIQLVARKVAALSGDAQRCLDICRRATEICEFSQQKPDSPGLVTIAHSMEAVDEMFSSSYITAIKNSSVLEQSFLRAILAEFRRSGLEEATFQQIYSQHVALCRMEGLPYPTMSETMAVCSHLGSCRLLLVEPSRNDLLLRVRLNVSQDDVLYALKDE
T1 sequence (O43929 whole entry N78S, the tested form may be a part): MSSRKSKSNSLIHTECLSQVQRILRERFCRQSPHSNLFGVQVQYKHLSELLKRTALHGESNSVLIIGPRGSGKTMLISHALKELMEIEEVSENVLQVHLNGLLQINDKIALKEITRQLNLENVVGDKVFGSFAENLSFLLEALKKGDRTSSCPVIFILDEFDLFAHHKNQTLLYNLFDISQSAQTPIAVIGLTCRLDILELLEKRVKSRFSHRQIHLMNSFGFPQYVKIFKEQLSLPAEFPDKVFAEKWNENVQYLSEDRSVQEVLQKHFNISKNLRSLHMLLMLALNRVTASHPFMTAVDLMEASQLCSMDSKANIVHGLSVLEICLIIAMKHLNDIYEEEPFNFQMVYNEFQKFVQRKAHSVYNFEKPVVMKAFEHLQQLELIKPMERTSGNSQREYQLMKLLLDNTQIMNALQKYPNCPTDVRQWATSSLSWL
T1 sequence (Q13416 whole entry partner, the tested form may be a part): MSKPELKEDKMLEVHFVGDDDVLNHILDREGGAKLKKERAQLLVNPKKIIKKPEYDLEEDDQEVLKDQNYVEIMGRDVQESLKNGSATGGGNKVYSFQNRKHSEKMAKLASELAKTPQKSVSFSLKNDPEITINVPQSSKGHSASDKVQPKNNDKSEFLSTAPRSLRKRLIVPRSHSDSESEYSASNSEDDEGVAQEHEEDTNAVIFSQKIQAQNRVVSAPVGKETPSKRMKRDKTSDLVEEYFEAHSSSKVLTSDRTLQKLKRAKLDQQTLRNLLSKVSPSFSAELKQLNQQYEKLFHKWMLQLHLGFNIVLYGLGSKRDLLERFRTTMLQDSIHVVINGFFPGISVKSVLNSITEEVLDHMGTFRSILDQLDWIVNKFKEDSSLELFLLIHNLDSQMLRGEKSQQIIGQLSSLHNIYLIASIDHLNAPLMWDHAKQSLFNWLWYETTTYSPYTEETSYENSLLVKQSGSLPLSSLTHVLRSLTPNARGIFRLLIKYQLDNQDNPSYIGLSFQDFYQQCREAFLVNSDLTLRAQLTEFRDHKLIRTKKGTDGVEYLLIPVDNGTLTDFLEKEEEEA
T1 sequence (Q9UBD5 whole entry partner, the tested form may be a part): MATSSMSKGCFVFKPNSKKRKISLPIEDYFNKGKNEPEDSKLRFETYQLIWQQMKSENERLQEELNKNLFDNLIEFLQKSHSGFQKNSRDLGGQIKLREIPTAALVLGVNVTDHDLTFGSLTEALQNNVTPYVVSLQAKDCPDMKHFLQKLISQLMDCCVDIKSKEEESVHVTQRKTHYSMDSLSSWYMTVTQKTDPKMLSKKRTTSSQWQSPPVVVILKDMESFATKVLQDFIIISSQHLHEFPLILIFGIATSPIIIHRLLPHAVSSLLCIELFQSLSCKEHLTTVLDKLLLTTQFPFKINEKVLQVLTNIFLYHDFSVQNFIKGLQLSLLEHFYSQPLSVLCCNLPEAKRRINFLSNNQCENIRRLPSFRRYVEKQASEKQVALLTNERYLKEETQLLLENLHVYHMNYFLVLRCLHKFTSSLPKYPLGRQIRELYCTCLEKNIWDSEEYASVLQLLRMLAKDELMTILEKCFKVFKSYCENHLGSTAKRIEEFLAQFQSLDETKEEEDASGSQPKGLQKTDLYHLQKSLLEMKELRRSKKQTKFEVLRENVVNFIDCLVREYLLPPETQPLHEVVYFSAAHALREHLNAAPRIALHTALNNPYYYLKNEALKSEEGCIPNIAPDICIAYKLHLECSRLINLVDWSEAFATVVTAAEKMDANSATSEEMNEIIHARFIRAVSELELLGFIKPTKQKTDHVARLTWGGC
T1 sequence (O43913 whole entry partner, the tested form may be a part): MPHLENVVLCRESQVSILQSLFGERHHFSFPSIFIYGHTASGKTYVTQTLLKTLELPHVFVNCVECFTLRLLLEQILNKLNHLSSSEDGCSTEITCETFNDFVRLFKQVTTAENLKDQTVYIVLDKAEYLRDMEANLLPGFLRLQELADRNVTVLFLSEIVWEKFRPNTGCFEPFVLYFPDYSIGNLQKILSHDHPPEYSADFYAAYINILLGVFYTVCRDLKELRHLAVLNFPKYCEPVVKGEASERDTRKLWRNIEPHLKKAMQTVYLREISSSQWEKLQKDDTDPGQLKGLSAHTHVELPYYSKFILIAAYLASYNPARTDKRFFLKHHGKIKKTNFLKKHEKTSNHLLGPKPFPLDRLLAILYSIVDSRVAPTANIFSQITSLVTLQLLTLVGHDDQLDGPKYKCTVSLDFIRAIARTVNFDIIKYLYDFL

Regarding `Nc1ncnc2c1ncn2[C@@H]1O[C@H](COP(=O)(O)OP(=O)(O)OP(=O)(O)O)[C@@H](O)[C@H]1O` [ATP], the “NADH-coupled steady-state ATPase assay” value in data set [1] is reported as “with the largest ATP hydrolysis defect observed with ORC1R720Q”.

B1: 40 bp fluorescein dsDNA (dsDNA)
DNA 1: TTTTGAAAAGCAAGCATAAAAGATCTAAACATAAAATCTG
DNA 2: CAGATTTTATGTTTAGATCTTTTATGCTTGCTTTTCAAAA
On to B1, for which the binding result with ORC1-5 ORC1 R720Q and with ORC1-5 ORC4 Y174C was “no binding” throughout. Moreover, the Kd with ORC1-5 ORC1 R666W was 49.9 nM; with ORC1-5 (WT, ORC1ΔN) it was 37.6 nM.

Values taken from publication PMC12830165 (The Journal of Biological Chemistry, 2025).
